Laboratory results: patent US20060073159A1, “Human anti-cancer immunotherapy” (The Trustees of the University of Pennsylvania, priority 2004, published 2006)

Key:
HLA-A2 = target: T1, HLA-A2 (Homo sapiens, UniProt P04439, D140Y/D185E/D98H/E176V/E277Q/G131W/G231S/I119V/I121R/I166T/I218V/L300P/L318F/N151K/N90K/P208A/P217A/Q86G/Q94H/R138H/R169H/T345S); experiment: flow-based T2 binding assay (HLA-A2 binding and MHC complex stability); conditions: 6 epitopes from each gene product compared, T2 cells
T1 construct: T2 cells are prepared to a concentration of 1×10^6 cells/mL; endogenous in cells; host or cells: T2 cells
Procedure: T2 cells are harvested as described elsewhere herin. T2 cells are wash three times in serum free media. T2 cells are prepared to a concentration of 1×10^6 cells/mL. 1 mL of T2 cells is added to each well of 24 well plate. B2M (1 mg/mL) is added to the mixture to give a final concentration of 2.5 ug/mL. Appropriate control or peptide at 50 ug/mL is added to each wll. The cells are incubated in an incubator at 37° C. For a positive control peptide, RT-POL vs flu or tax can be used.
Next day, cells are harvested and washed three times in serum-free RPMI. The supernatant is removed and the cells are resuspend in 800 ul of serum free IMDM. The cells are plated (400 ul of cells) to one well of a 48 well plate. […]
The fluorescence index (FI) can be calculated from the mean fluorescence intensity as follows: FI=(MFIpeptide/MFIno peptide)−1 The complex's half-life can be calculated using SigmaPlot regression analysis and the following formula: y=yo+a*e^bx t1/2=1/b*ln((y−yo)/a) with yo=Fimax/2 Conjugation of Monomers to Generate Tetramers
HLA-A2-restricted epitopes derived from HoxA9 and Meis I were predicted using two computational algorithms, and 6 epitopes from each gene product with the highest predicted likelihood of binding to HLA-A2 were evaluated empirically using a flow-based T2 assay, as described (Vonderheide et al., 1999, Immunity 10:673-679). […]

[1] = system: HoxA9+ and Meis1+ leukemia cell lines; experiment: lysis of leukemia cell lines by peptide-specific CTL; type: cell-based, human; conditions: antigen-dependent, MHC-restricted; HLA-A2-negative or antigen-negative leukemia cells not killed
Description: To determine whether these peptides could trigger the expansion of specific CTL, CD8+ T cells from normal HLA-A2+ donors were stimulated in vitro with autologous peptide-loaded antigen presenting cells, using a system previously described (Vonderheide et al., 1999, Immunity 10:673-679). […] Moreover, both Hox-TLD and Mei-AIY specific CTL were able to lyse HoxA9+ and Meis1+leukemia cell lines in an antigen-dependent, MHC-restricted fashion.

[2] = system: T2 cells loaded with cognate peptide; experiment: lysis of peptide-loaded T2 cells by peptide-specific CTL; type: cell-based, human; conditions: not negative control viral peptide
Procedure: The following assay is adapted from Fischer et al. (2002, J. Immunol. Methods 259:159-169). Briefly, T2 cells are labeled as follows. T2 cells are plated at 1×10^6/mL in serum-free RPMI-1640×1 mL in 24 well plate. 2.5 ug/mL B2M is added to the cells. 1 ug/mL peptide (Tax or Flu) is added to the mixture. The cells are incubate overnight at 37° C. in a CO2 incubator. The cells are then washed once in RPMI-1640 (serum free). The supernatant is removed; leaving about 25 ul supernatant on the pellet. The remaining cells in suspension are agitated to mix with the supernatant. 1 mL of diluent C is added to resuspend the cells.
Immediately prior to staining, 4×10)(−6)M PKH26 dye is prepared at RT (1:250 dilution of stock; 4 ul of 996 ul diluent C). 1 mL of PKH26 dye is immediately added to 1 mL of cells. The sample is immediatedly mixed by gentle pipetting. The sample is incubate at RT for about 2-5 minutes, with periodical swirling of the tube to insure mixing. The staining reaction is stopped by adding 2 mL of serum in a compatible protein solution. This solution is incubated for 1 minute to stop the staining reaction. The sample is then diluted with 4 mL of complete media (T cell media). The cells are washed two to three times with T cell media.
To assay for the T2 cells, targets at 2e5/mL in IMDM 10% huSerum is prepared. Effectors are prepared at 2×10^6/mL and 2×10^5/mL in IMDM 10% huSerum. […]

human HLA-A*0201 = target: T2, human HLA-A*0201 (human); experiment: flow-based T2 assay (HLA-A2 stabilisation on peptide-pulsed T2 cells, anti-HLA-A2-FITC)
T2 construct: HLA-A2 on TAP-deficient T2 cells; Surface stabilisation by peptide was read with anti-HLA-A2-FITC by flow cytometry; also called HLA-A2; A2
Procedure: Next day, cells are harvested and washed three times in serum-free RPMI. The supernatant is removed and the cells are resuspend in 800 ul of serum free IMDM. The cells are plated (400 ul of cells) to one well of a 48 well plate. The cells are incubate for an additional 6 hours in an incubator at 37° C. The remaining cells are saved and place on ice for immediate analysis. The cells are stained for anti-HLA-A2-FITC and for IgG-FITC. The cells are anaylized on a flow cytometer.
HLA-A2-restricted epitopes derived from HoxA9 and Meis I were predicted using two computational algorithms, and 6 epitopes from each gene product with the highest predicted likelihood of binding to HLA-A2 were evaluated empirically using a flow-based T2 assay, as described (Vonderheide et al., 1999, Immunity 10:673-679). […] The same cells in normal HLA-A2+ donors were undetectable.

Molecule	binding and MHC complex stability (HLA-A2)	lysis of HoxA9+ and Meis1+ leukemia cell lines by specific CTL [1]	lysis of T2 cells loaded with cognate peptide by specific CTL [2]	binding result (human HLA-A*0201)
Hox-TLD: epitope of the antigen HOX-A9, SEQ ID NO:3 (TLDTHTLSL; human-derived peptide)	best binding and MHC complex stability	able to lyse	able to lyse T2 cells loaded with cognate peptide	–
Mei-AIY: epitope of the antigen Meis1, SEQ ID NO:11 (AIYGHPLFPL; human-derived peptide)	best binding and MHC complex stability	able to lyse	able to lyse T2 cells loaded with cognate peptide	–
AIYGHPLFPL [Mei-AIY]	–	–	–	binds
TLDTHTLSL [Hox-TLD]	–	–	–	binds
